Source: patent US20130078237A1 (Amgen, published 2013)

How the values were obtained:
[1] = target: T1, human CD27L on the surface of cells (human, UniProt P32970 1-193); assay: cell-based or functional assay
T1 sequence: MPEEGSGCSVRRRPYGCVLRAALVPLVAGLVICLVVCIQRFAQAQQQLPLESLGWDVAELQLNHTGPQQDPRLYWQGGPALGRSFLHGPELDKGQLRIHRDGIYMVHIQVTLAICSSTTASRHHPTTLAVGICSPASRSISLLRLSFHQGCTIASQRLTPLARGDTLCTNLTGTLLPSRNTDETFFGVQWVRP

[2] = target: T1, human CD27L on the surface of cells; assay: flow cytometry (FACS) on 786-0 cells
[3] = target: T1, human CD27L on the surface of cells; assay: Gyros, native human CD27L on Raji cells
[4] = target: T1, human CD27L on the surface of cells; assay: flow cytometry on 786-0 cells, reference Ab8

B1: Ab8-MCC-DM1 (antibody, human IgG1, kappa, V domains shown)
VH: QVQLVESGGGVVQPGRSLRLSCAASGFTFSSYGMHWVRQAPGKGLEWVAVIWYDGSDKYFADSVKGRFTISRDNSKNTLYLQMNSLRAEDTAVYYCARDGIAGARYVYFDYWGQGTLVTVSS
VL: DIQMTQSPSSLSASVGDRVTITCRASQGISNYLAWFQQKPGKAPKSLIYAASSLQGGVPSKFSGSGSGTDFTLTISSLQPEDFATYYCQQYYNYPFTFGPGTTVDIKR
notes: also called Ab8 antibody drug conjugate; conjugated Ab8
786-0-IC50, Antibody Conc. (nM); cell growth inhibition, CellTiter-Glo, 4 days [1]: 0.11 nM | 786-0-IC50, Drug Conc. (nM); cell growth inhibition, CellTiter-Glo, 4 days [1]: 0.54 nM | EC50 [2]: 0.08 nM | Kd [3]: 0.077 nM | fold change of binding EC50 against Ab8 [4]: 4 fold
